Results reported in paper PMC7229842, “Molecular basis of the multifaceted functions of human leucyl-tRNA synthetase in protein synthesis and beyond” (Nucleic Acids Research, 2020).

Assays:
[1] = biological target: T1, Human cytosolic isoleucyl-tRNA synthetase (human, UniProt P41252 1-1262); assay: pull-down; in vitro assembly of the MSC as in a2 but lacking hcLRS; anti-Flag beads on MRS-Flag; conditions: both partners purified
T1 construct: human cytosolic isoleucyl-tRNA synthetase (IRS), gene cloned from the cDNA of HEK293 cells; also called IRS; source: recombinant from a modified pET28b, purified (Ni-NTA, gel filtration)
T1 sequence (looked up): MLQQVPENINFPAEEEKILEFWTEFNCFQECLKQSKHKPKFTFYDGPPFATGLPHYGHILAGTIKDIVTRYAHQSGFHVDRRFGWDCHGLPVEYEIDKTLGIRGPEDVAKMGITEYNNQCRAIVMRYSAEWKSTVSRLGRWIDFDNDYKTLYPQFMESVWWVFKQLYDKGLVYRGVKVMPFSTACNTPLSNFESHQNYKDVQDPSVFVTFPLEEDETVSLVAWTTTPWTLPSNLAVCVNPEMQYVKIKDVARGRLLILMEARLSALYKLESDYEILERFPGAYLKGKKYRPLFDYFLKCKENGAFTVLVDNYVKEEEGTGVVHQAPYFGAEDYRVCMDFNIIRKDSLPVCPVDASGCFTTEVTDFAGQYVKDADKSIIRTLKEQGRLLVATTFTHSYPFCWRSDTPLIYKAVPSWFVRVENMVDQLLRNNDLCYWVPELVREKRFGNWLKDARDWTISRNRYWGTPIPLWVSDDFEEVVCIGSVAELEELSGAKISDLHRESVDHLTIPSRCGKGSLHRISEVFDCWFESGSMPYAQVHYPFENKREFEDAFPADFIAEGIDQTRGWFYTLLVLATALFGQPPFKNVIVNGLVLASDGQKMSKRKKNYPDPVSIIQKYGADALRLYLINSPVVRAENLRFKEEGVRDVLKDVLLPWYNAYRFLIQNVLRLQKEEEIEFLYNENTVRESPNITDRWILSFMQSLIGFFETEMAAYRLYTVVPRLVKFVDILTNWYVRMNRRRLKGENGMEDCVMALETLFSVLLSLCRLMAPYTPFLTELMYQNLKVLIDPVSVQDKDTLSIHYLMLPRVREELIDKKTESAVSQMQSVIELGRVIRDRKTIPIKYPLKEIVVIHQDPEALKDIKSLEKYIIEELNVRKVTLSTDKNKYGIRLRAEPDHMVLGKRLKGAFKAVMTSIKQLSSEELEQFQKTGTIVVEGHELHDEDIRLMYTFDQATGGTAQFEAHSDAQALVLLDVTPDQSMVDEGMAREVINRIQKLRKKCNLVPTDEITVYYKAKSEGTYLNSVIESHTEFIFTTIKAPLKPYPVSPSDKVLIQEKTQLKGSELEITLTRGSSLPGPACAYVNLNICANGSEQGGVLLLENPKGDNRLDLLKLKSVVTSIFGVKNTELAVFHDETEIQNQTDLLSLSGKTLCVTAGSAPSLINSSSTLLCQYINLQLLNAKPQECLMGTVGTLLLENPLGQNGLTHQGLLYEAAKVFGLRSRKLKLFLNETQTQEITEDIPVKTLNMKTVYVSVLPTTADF

[2] = biological target: T2, Human cytosolic glutamyl-prolyl-tRNA synthetase (human, UniProt P07814 1-1512); assay: pull-down; in vitro assembly of the MSC as in a2 but lacking IRS; anti-Flag beads on MRS-Flag; conditions: both partners purified
T2 construct: human cytosolic EPRS, gene cloned from the cDNA of HEK293 cells; also called EPRS; source: recombinant from a modified pET28b, purified (Ni-NTA, gel filtration)
T2 sequence (P07814 whole entry): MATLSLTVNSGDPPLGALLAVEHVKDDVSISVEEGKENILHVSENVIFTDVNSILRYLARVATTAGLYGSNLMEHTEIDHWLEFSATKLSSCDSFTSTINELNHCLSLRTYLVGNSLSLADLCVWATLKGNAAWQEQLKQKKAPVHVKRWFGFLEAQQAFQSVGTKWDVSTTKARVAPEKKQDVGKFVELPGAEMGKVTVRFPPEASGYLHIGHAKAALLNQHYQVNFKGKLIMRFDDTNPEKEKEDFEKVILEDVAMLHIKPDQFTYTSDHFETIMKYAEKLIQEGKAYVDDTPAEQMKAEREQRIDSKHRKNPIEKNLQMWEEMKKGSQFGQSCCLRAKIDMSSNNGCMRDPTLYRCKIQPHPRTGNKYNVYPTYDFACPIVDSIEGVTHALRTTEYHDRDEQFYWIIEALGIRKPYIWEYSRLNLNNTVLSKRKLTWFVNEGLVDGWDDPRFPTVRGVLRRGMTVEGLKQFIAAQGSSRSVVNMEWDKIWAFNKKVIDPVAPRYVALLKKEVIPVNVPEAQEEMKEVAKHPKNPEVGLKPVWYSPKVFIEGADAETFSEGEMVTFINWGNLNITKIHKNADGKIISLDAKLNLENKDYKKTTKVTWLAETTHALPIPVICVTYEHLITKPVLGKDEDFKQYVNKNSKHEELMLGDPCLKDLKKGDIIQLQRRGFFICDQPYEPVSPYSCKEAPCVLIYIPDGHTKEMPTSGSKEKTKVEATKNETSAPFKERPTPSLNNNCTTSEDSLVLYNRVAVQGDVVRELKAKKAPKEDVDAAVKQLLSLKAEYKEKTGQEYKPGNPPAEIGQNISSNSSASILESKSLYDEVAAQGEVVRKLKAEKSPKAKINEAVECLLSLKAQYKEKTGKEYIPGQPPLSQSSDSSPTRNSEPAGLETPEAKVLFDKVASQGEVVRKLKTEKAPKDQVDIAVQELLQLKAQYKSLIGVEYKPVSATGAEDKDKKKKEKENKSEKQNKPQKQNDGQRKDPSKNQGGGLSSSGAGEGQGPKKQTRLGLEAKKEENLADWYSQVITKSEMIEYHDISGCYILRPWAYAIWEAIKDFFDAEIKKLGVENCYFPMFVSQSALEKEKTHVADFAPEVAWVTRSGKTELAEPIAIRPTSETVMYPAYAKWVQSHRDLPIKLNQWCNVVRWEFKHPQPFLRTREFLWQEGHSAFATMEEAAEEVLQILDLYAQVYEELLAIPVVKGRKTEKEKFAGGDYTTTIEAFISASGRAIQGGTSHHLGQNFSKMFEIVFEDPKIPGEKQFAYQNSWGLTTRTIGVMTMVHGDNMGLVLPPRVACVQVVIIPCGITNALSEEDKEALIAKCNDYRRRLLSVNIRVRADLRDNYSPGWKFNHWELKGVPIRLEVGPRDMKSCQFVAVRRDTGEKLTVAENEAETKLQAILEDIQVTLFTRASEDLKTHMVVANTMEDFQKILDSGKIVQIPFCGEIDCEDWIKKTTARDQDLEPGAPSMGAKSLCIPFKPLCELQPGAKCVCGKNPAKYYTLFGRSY

binding result [1]: binds
binding result [2]: binds
B1: MRS-AIMP3 complex (human cytosolic methionyl-tRNA synthetase co-expressed with AIMP3) (complex)
chain 1: MRLFVSDGVPGCLPVLAAAGRARGRAEVLISTVGPEDCVVPFLTRPKVPVLQLDSGNYLFSTSAICRYFFLLSGWEQDDLTNQWLEWEATELQPALSAALYYLVVQGKKGEDVLGSVRRALTHIDHSLSRQNCPFLAGETESLADIVLWGALYPLLQDPAYLPEELSALHSWFQTLSTQEPCQRAAETVLKQQGVLALRPYLQKQPQPSPAEGRAVTNEPEEEELATLSEEEIAMAVTAWEKGLESLPPLRPQQNPVLPVAGERNVLITSALPYVNNVPHLGNIIGCVLSADVFARYSRLRQWNTLYLCGTDEYGTATETKALEEGLTPQEICDKYHIIHADIYRWFNISFDIFGRTTTPQQTKITQDIFQQLLKRGFVLQDTVEQLRCEHCARFLADRFVEGVCPFCGYEEARGDQCDKCGKLINAVELKKPQCKVCRSCPVVQSSQHLFLDLPKLEKRLEEWLGRTLPGSDWTPNAQFITRSWLRDGLKPRCITRDLKWGTPVPLEGFEDKVFYVWFDATIGYLSITANYTDQWERWWKNPEQVDLYQFMAKDNVPFHSLVFPCSALGAEDNYTLVSHLIATEYLNYEDGKFSKSRGVGVFGDMAQDTGIPADIWRFYLLYIRPEGQDSAFSWTDLLLKNNSELLNNLGNFINRAGMFVSKFFGGYVPEMVLTPDDQRLLAHVTLELQHYHQLLEKVRIRDALRSILTISRHGNQYIQVNEPWKRIKGSEADRQRAGTVTGLAVNIAALLSVMLQPYMPTVSATIQAQLQLPPPACSILLTNFLCTLPAGHQIGTVSPLFQKLENDQIESLRQRFGGGQAKTSPKPAVVETVTTAKPQQIQALMDEVTKQGNIVRELKAQKADKNEVAAEVAKLLDLKKQLAVAEGKPPEAPKGKKKK
chain 2: MAAAAELSLLEKSLGLSKGNKYSAQGERQIPVLQTNNGPSLTGLTTIAAHLVKQANKEYLLGSTAEEKAIVQQWLEYRVTQVDGHSSKNDIHTLLKDLNSYLEDKVYLTGYNFTLADILLYYGLHRFIVDLTVQEKEKYLNVSRWFCHIQHYPGIRQHLSSVVFIKNRLYTNSH
notes: human cytosolic methionyl-tRNA synthetase (MRS), gene cloned from the cDNA of HEK293 cells; Only MRS carries the Flag tag; It is the bait of the anti-Flag pull-down of the assembled MSC; source: co-expressed from a modified pETDuet-1, purified (Ni-NTA, gel filtration); not shown: Flag, C-terminal, kept
